# Test results published in paper PMC11187536.
# Assays:
# [1] = target: soluble variant surface glycoprotein (sVSG) MITat1.2 (Trypanosoma brucei (endogenous in cell line 13-90)); experiment: SEC; Superdex 200 Increase 10/300 GL, 20 mM sodium acetate pH 5.2, 150 mM NaCl, 100 µl sample at 5 mg/ml, 1 ml/min; self-association, dimer
# [2] = target: soluble variant surface glycoprotein (sVSG) MITat1.2 (Trypanosoma brucei (endogenous in cell line 13-90)); experiment: SEC; Superdex 200 Increase 10/300 GL, 50 mM HEPES pH 7.4, 150 mM NaCl, 100 µl sample at 5 mg/ml, 1 ml/min; self-association, dimer
substance,measurement,setting,value
soluble variant surface glycoprotein (sVSG) MITat1.2 (natural protein),stoichiometry N,[1],2
same,stoichiometry N,[2],2
